How the values were obtained:
[1] = LC-MS assay of GH3 conjugation of 2,4-D with Asp or Glu; format: biochemical; details: for kcat (hrs−1) 2,4-D-Asp: conjugation of 2,4-D with Asp by recombinant GH3 protein, 2,4-D-Asp product by LC-MS; for kcat (hrs−1) 2,4-D-Asp / kcat (hrs−1) 2,4-D-Glu: 5 mM 2,4-D substrate; for kcat (hrs−1) 2,4-D-Glu: conjugation of 2,4-D with Glu by recombinant GH3 protein, 2,4-D-Glu product by LC-MS; for 2,4-D conjugation activity with Asp or Glu: result in words
Procedure, shortened: (§1)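 Kinetic parameters come from Michaelis-Menten fits of initial velocities. Velocities reflect LC-MS quantification, against standards, of Asp or Glu conjugates formed by purified GH3 (44 to 164 μg/mL) with 5 mM ATP and MgCl2 at pH 8.0, 30° C.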

[2] = LC-MS assay of GH3 conjugation of IAA with Asp or Glu; format: biochemical; details: for kcat (hrs−1) IAA-Asp: conjugation of IAA with Asp by recombinant GH3 protein, IAA-Asp product by LC-MS; for kcat (hrs−1) IAA-Glu: conjugation of IAA with Glu by recombinant GH3 protein, IAA-Glu product by LC-MS; for IAA conjugation activity with Asp or Glu: result in words
Procedure, shortened: as §1

Molecule	kcat (hrs−1) 2,4-D-Asp [1] [h⁻¹]	kcat (hrs−1) 2,4-D-Glu [1] [h⁻¹]	2,4-D conjugation activity with Asp or Glu [1]	kcat (hrs−1) IAA-Asp [2] [h⁻¹]	kcat (hrs−1) IAA-Glu [2] [h⁻¹]	IAA conjugation activity with Asp or Glu [2]
OsGH3-7: GH3 protein, accession Q654M1 (protein, listed as Oryza sativa) MALLLPEFDPADVRAGRDLIHRLTADAAGIQRGVLREILSRNSGTEYLRRFLGGAAGDDDDVRDAFKRRVPVSGYEDVKPYVDRVASGGEPSSALLCSDPITCLSRSSGTSGGQQKLLPSTAEELDRKVFFYAVQALVRNMSLHTDHGEDDDGGGGEGMYLMFAFHGDRTLSGLPIQSALTTYYHSRQFQECDIGGFDKCTSPLEAILCPYGEQSMYCQLLCGLLHRCRVDRVGASFAAGLVRGIKFLENHWEEMCFNIRSGQLSDWITHTPLRDAVTGQYLQGSNPALADEIASECARKPWDGIVRRLWPRARYIRTIVTGSMSQYIPILEVYGGGLPLVSPIYASTECAAGINLRPLDPPSHVSYALLPNIAYFEFLEVMDENGEKVQGTTRLDDNLGEVKVVDLVDVKVGRCYELIVTTFAGLYRYRVGDLFTVSGFYNATPLFHFSGRHDVILSIDYEKISEEDLLNAIAETDKFHLRPLGYMLVGSTAYADISTLPGHYILFWELTNTCDSNVAIDIDQTAMEKCCLAVEDHFDEMYRKIRHRGSISALEIRILSHGAFDALMDFFVSRGTSASQYKTPTAIRSKEAMMVLEERVVGRFFSQATPSCRSAEFERR	0.000	0.028	2,4-D conjugases	0.000	0.000	IAA-inactive
AtGH3-13: GH3 protein, accession CAB86642 (protein, listed as Arabidopsis thaliana) MLPKFDLTDPKASLSLLEDVTTNVTQIQDSILEAVLSRNAHTEYLKGFLNGQVDKQTFKKNVPIVTYEDIKPYINRIANGEASDLICDRPISLLVMSSGTTAGIQNLIPLTTEDGEQRIMFGSLYRSLLYKYVEGIREGKSLTFYFVNPERETASGILIRTMITCILKSVNKTNSSLWDRLQISPHEISTCEDTTQSMYCQLLCGLLQRDNVARLGAPFASVFIRVIKYLEGHWQELCSNIRTGRLSDWITDPQCVSGISKFLTAPNPDLASLIEQECSKTSWEAIVKRLWPKAKCVEAVVTGSMAQYIPLLEFYGGGLPLISSWYGSSECFMGVNVNPLCKPSDVSYTIIPSMAYFEFLEVKKDQQEAGLDPIENHVVVDLVDVKIGHDYEPVVTTFSGLYRYRVGDLLRVTGFYNNSPHFRFVGRQKVVLSLHMANTYEEDLLKAVTNAKLLLEPHDLMLMEFTSRVDSSSFVGHYVLYWELGSKVKDAKLEPNRDVMEECCFTVEKYLDPLYRQERRKDKNIGPLEIKVVKPGAFDELMNFFLSRGSSVSQYKTPRSVKTEEAVKILEANVVSEFLSQETPPWG	0.000	0.018	2,4-D conjugases	0.000	0.000	IAA-inactive
PtGH3-14: GH3 protein, accession EEE99364 (protein, listed as Populus trichocarpa) MTYDELDRNLEDLTKNAAHHQLQTLHSILQHQASVGYLQPYLSACHAPVDAATFRSQVPLSSYDDYFHLINQLANGDIDHHQPLLSADPLLCFFYSSGTSTMKPKLIPYFDSALSKAASYNAHQGSAAIFRNLVPPRPEVNKILWFLYADDAPTTRGGFKVMAASTYPLQGNKSRSNWSQTLSCISPREVVFGSNIKQQMYCHLLCALRSFDIIDGIRAAYAAGLIRAFSLLESKWEKLCDDLESGFPSLEIGDAAMKESVVEFLGGPQVDLSRRIREICAESNWGGILSKLWPNVRYVKSVTTGSMKQYYSKLKYYAGDVMILGGDYFASECCLGINLDIQQPPESTRFVMLPTTAYFEFLPFDLNESSVVGEETVDFSGVKVGKMYEVAVTTYRGLYRYRLGDIVRVVGFHNSSPLVEFVMRAPKTGYEIITEKDLMSAMESFQHSMAAEVVEFASFSDFELSPKRLKVFIEFREGCDFLQEEKLQGSVEALQRCCSSLENGLGEIYKVQKDRGEIGPLLVSVVRSGSFDGILQMAIKNGAPAGQYKPPKIIRNREIVDFMEESAVLTISLDSFHG	0.000	0.015	2,4-D conjugases	0.000	0.000	IAA-inactive
AtGH3-14: GH3 protein, accession CAB87143 (protein, listed as Arabidopsis thaliana) MLPKFDPTDQKACLSLLEDVTTNVKQIQDSVLEAILSRNAHTEYLSGFLNGQADKKSFKKNVPVVTYEDIKPYIDRIANGEPSDLICDRPISVLLTSSGTSGGVPKLIPLTTEELEQRISFASLYRPLLYKYIEGIRERKSFMLYFVTRESETASGILVRTMITCVLKSVTPANSFIWDQSQISPHAITTCSDTTQSMYCQLLCGLLQRDNVGRLGAPFASSFLKIIKFLEDHWPEFCSNIRTGCLSDWITDPQCVSGIGKFLTAPNPELASLIEQECSQTSWEAIVKRLWPKAKCIEAIVTGTMAQYNPLLEFYSGGLPVISTFYGSSECFFGLNLNPLSKPNEVSYTIIPCMAYFEFLEVEKDYESGHDPAENPVVVDLVDVKIGHDYEPVVTTFAGLYRYRLGDVLRVTGFYNNAPQFHFVGRQKVVLSIDMDKTYDEDLLKAVTNASLLLEPHDLMLMDFTSRVDSSSYPGHYVLYWELGRKVKDAKLELDQNVLEECCFTIEESLDAVYRKGRKNDKNIGPLEIKVVKPGAFDKLMNFFLSRGSSVSQYKTPRSVTNEEALKILEANVVSEFLSQKTPSWELHELHSSR	0.122	0.233	2,4-D conjugases	0.000	0.000	IAA-inactive
OsGH3-11: GH3 protein, accession P0C0M3 (protein, listed as Oryza sativa) MDDHNLDYKGSGALEELEMLTVNAKEAQELILTKILERNQATEYLSKFMNGSTNISAFKRHVPVVTYDKVHPYILRIATGEESSILCGEYILELLRSSGTSRGEPRLMPSILKDLDRRTYLYSLIMPIMNKYISGLGEGKAMYLLFVKAETLTDSGIPVRSVLTSYYKSPHFLHRKHDLYNNYTSPDEVILCPDSQQSMYCQLLCGLVERQHVLRIGAVFASAFLRSISFLEQHWRDLVNDIRIGQLNSSITSPACRLAMLNFLALPNPELADQVEAICSCGSWKGILGRLWPNVKYIEAVLTGTMAQYIPMLEFYGGGAIPFVCTMYASSESYFGVNLSPLCSPADVSYTILPNMAYFEFIPLEDGLRLTDHEEVIENDKLVSLVDVKVGCYYELVVTTFSGLYRYRVGDVLQVTGFYNRAPQFKFICRRNVILSIDSDKTNEEDLHNSVTTAKKILENQNYLLLEYTSYTDISTVPGHYVLFWEIKSTHDERPAPLDAQLLESCCAAVEESLDYVYRRCRAHDRSIGPLEIRLVEAGAFDALMDLLVSHGSSINQYKTPRCIESSLALKLLNSKVIACFFSPQDPECGM	0.000	0.043	2,4-D conjugases	0.000	0.000	IAA-inactive
VvGH3-8: GH3 protein, accession XP_002271002 (protein, listed as Vitis vinifera) MADGEILKKLEDSTKDAVAVQLQTLHTILQRNGRSSYLQRYGASLDTGSFREAVPLSCYDDYADYIDRMADGGGGDDDGDRPLLSVDPLVCFFNSSGTSSMKPKLIPYFDSPPSKAASHIAHQGSVAILRRLFPPRQSINKVLWFLYAGNVTYTKGGFKAMAASAFPLQSNNKNPSPFLSTSASPREVILGSNVEQQMYCHILCGLRNLDFLDGIRAPYAVGLIRAFALLEFKWEQICEDLKCGFPSMEITDIAMRDSVTEVLAGPQLDLSKRIRTICEGKNWGGIVGKLWPNVRYIKCVCTGSMEQYYQKLKYYAGEIPVLGGDYFASECCVGINLDILQPPQLTRFVLLPTAAYFEFLPFTLDEEEIGDDAQETVDFSGVEVGKMYEIVVTTYRGFFRYRLGDVVRVVGFHNTSPEVEFVMRAPKTPAEILTERDLMTAMGNFQLVLRTVKMPDVTEFASFFDLDSIPKQLKIFLEVAGVLQDEKLQELGSVLRRNFSSLEDGLGGVYKLRKGRGEVGPLLVSIVKPGSFNRLLQMATENGAPASQYKPPKIIRNLEIVHFMEGSALLTVSFDSSD	0.000	0.028	2,4-D conjugases	0.000	0.000	IAA-inactive
PtGH3-9: GH3 protein, accession EEE81977 (protein, listed as Populus trichocarpa) MDGKKLEYKGWVALKEIERLTEKADEVQETILKAILMQNGETEYLSKYMKGSKDVDEFKFHVPVITYKDVCPYIQRIATGEDSSLVTGHPVTEMLCSSGTSAGEPKLMPSIAEDLDRRTFVYNLIMPIMNQYIFGLDEGKAMFLYFIKAEMSTPCGLPARTVLTSYYKSKHFKCRTRDAFNDFTSPDQAILCKDSNQSMYCQLLSGLVHRHQVLRLGAVFASAFLRAISFLERNWGRLCNDIRSGDLDPTITDPECRSCMSMLLTSPNPSLADEIEDICSNTSWKGILCHLWPRAKYIEAVVTGSMAQYIPSLEYYSEGKLPLVCTMYASSECYFGVNLKPLCDPADVAFTLLPNMCYFEFIHLGENGTWLVNKDEEGEVPNDKLVNLVNVRLGSYYELVVTTFAGLYRYRIGDVLRVTGFHNKAPQFQFICRRNVVLSIDNDKTNEEDLHKSITAAKKLLEPYDALLVEYTSYADTSSVPGHYVLYWEILHDASFPDSSAQLDVKLLQECCISVEEELDYVYRRCRAHDKSVGPLEIRVVESGTFEALMDFFIGQGASINQYKTPRSIKSNAALKLLNSHVKASAFSPRDPAWIP	0.065	0.305	–	4.487	21.980	–

— patent US20150351390A1, “COMPOSITIONS AND METHODS FOR AUXIN-ANALOG CONJUGATION” (PIONEER HI-BRED INTERNATIONAL, INC., priority 2012, published 2015)
